This note sets out measurements from patent publication US20070037211A1 (COUNCIL OF SCIENTIFIC AND INDUSTRIAL RESEARCH CSIR, published 2007).

Experiment [1] has as its target Hsp16.3, 16 kDa alpha-crystallin like heat shock protein of Mycobacterium tuberculosis, recombinant 6xHis-tagged (Mycobacterium tuberculosis) (UniProt P9WMK1). The experiment in a line: reverse phage ELISA on coated Hsp16.3, anti-M13-HRP, A405. Background: An ELISA detects its analyte on a solid surface through an enzyme-linked reagent.
For experiment [2] the target is unchanged. As to the kind of experiment: cell-based or functional assay.

Sequence of Hsp16.3, 16 kDa alpha-crystallin like heat shock protein of Mycobacterium tuberculosis, recombinant 6xHis-tagged (Mycobacterium tuberculosis) (P9WMK1 1-144, tags left off): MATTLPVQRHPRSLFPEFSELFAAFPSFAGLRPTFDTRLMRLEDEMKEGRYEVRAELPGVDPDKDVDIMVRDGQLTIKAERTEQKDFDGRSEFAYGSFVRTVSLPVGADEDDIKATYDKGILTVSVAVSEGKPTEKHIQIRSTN

Take “M13 phage clone displaying peptide Seq ID 9 (Lys-Met-His-Ala-Thr-Asn-His), from Ph.D.-7 library”: the fold binding over non-specific control BSA in experiment [1] worked out at 3 fold.

Take “synthetic peptide Seq ID 10 (Seq ID 9 with Gly-Gly-Gly-Ser at the C-terminal end), C-terminus amidated”: in experiment [2], the IC50 of inhibition of chaperon activity of Hsp16.3 (ADH heat aggregation assay, A360) was 47 µM; the aggregation of ADH restored in the presence of Hsp16.3 and 100 µM peptide (A360 at saturation) worked out at 70%.
